B1: AbPT: prenyltransferase, Accession: KPI30840.1, SEQ ID NO: 9 (protein, listed as Actinomyces sp.)
chain: MSGKANIQRVYSAVEEAADLLDIACSREQMWPTLTAFEDVLTDGAIVFNMVTSGGRIGDLSFDFTLPPSAGDPYELALAHGLVDETDHPVRALFSDIQARFPLQAYGVDHGITSGFHKTYAFFPLGDLQSVAELADIPSMPSGLSEHVTSFAAYGLDDKVSAIAIDYARRTWNVYFNGLSAPHVQRTAVLSMLSEFGLPEPSAQLLEFIETSSALYPTFGWDSSKIERISFSTRTTDPVALPARIEPKLEKFARSAPHVYEGERVLVYAGALSPSEEYYKLATYYQMTAAAHDRVRSAN
B2: AtaWTPT: prenyltransferase, Accession: AMB20850.1, SEQ ID NO: 17 (protein, listed as Aspergillus terreus)
chain: MLPPSDSKDPRPWQILSQALGFPNYDQELWWQNTAETLNRVLEQCDYSVHLQYKYLAFYHKYILPSLGPFRRPGVEPEYISGLSHGGHPLEISVKIDKSKTICRLGLQAIGPLAGTARDPLNSFGDRELLKNLATLLPHVDLRLFDHFNAQVGLDRAQCAVATTKLIKESHNIVCTSLDLKDGEVIPKVYFSTIPKGLVTETPLFDLTFAAIEQMEVYHKDAPLRTALSSLKDFLRPRVPTDASITPPLTGLIGVDCIDPMLSRLKVYLATFRMDLSLIRDYWTLGGLLTDAGTMKGLEMVETLAKTLKLGDEACETLDAERLPFGINYAMKPGTAELAPPQIYFPLLGINDGFIADALVEFFQYMGWEDQANRYKDELKAKFPNVDISQTKNVHRWLGVAYSETKGPSMNIYYDVVAGNVARV
B3: NapT9: prenyltransferase, Accession: ABS50490.1, SEQ ID NO: 14 (protein, listed as Streptomyces sp.)
chain: MSGATGAEKLYSAIEESARMVDAPFSRDKVWPTLSAFEGGFSDAGGVILSLQAGTHVPEMEYSAQVSPGISDPYARALASGILTETDHPVSTVLAEIVSLAPTSEHYIDCGIVGGFKKIYANFPHDQQTVAALAGLPSMPRAVGGNAEFFARHGLDRVALIGVDYVNKTINLYFQVSAATAGNLDQKTVSAMLHETGMSEPSDAMVAYACQAYRIYTTLSWDAQEILRIAFAPKPRRGIDPADLPARLEPRIEKFLRATPHKYPGALINATAAKWSPEREVLDLAAHYQVSAVQMKAIEAEEGQAS
B4: NphB: naturally occurring prenyltransferase from Streptomyces sp. CL190, Accession: 1ZB6_A, SEQ ID NO: 8 (protein, listed as Streptomyces sp.)
chain: MSEAADVERVYAAMEEAAGLLGVACARDKIYPLLSTFQDTLVEGGSVVVFSMASGRHSTELDFSISVPTSHGDPYATVVEKGLFPATGHPVDDLLADTQKHLPVSMFAIDGEVTGGFKKTYAFFPTDNMPGVAELSAIPSMPPAVAENAELFARYGLDKVQMTSMDYKKRQVNLYFSELSAQTLEAESVLALVRELGLHVPNELGLKFCKRSFSVYPTLNWETGKIDRLCFAVISNDPTLVPSSDEGDIEKFHNYATKAPYAYVGEKRTLVYGLTLSPKEEYYKLGAYYHITDVQRGLLKAFDSLED
B5: NphBM31s: engineered soluble variant of prenyltransferase NphB from Streptomyces sp. CL190, SEQ ID NO: 6 (protein)
chain: MSEAADVERVYAAIEEAAGLLGVACARDKIWPLLSTFQDTLVEGGSVVVFSMASGRHSTELDFSISVPPSHGDPYAIVVEKGLFPATGHPVDDLLADIQKHLPVSMFAIDGEVTGGFKKTYAFFPTDNMPGVAELAAIPSMPPAVAENAELFARYGLDKVQMTSMDYKKRQVNLYFSELSAQTLEAESVLALVRELGLHVPNELGLKFCKRSFSVYPTLNWDTSKIDRLCFSVISTDPTLVPSSDEGDIEKFHNYATKAPYAYVGEKRTLVYGLTLSPKEEYYKLGAVYHITDVQRKLLKAFDSLED
modifications: Synthetic polymer
B6: MzPT1: prenyltransferase, Accession: WP_135330628.1, SEQ ID NO: 18 (protein, listed as Streptomyces sp.)
chain: MSRTAEVERVYSAIEEAAGLLSAVCSRDNVWPVLDAFGDELAEAMIVFGGQAGDRHAGELDYSFTVPSSIGNPYPHALSRGLVTETDHPVGSVLSDIQGRWPIKEHFVDAGVVGGFKKLYAHFPDNMQKVSDIADIPSMPRAVAENAALFARYGLDQVAMIGVDYRHKTVSVYFHFGPDGRPEPSTIRALLSDLGMPEPDEPTLEFAHKSLRVNITLGWETGDVIRVAFAPPPVRGLDPSALPGQLTPRMEEFARVSPRAYAGGRVNMYAVKWMRGEEFHEVCTYYQLTPWYEKILTDAPKEQQG

Assay: cell-free cyclolavandulylation activity screening of prenyltransferases, substrate resveratrol
Type: biochemical
Conditions: cell-free reaction with CLDS and DMAPP (CLPP donor), 28° C., 48 hours, QTOF LC/MS, with vs without prenyltransferase
Text: (§1) Genes encoding the following prenyltransferases were codon-optimized, synthesized, and cloned into the pET28a vector for protein expression and isolation/purification as described in Example 1. • NphB (Accession: 1ZB6_A) (SEQ ID NO: 8) • AbPT (Accession: KPI30840.1) (SEQ ID NO: 9) • SkPT (Accession: Q2L6E3.1) (SEQ ID NO: 10) • SvPT (Accession: WP_078899560.1) (SEQ ID NO: 11) • Sr1310PT (Accession: WP_057602682.1) (SEQ ID NO: 12) • NapT8 (Accession: ABS50461.1) (SEQ ID NO: 13) • NapT9 (Accession: ABS50490.1) (SEQ ID NO: 14) • Mcl23PT (Accession: AGH68908.1) (SEQ ID NO: 15) • CnqP3PT (Accession: WP_047018069.1) (SEQ ID NO: 16) • AtaWTPT (Accession: AMB20850.1) (SEQ ID NO: 17) • MzPT1 (Accession: WP_135330628.1) (SEQ ID NO: 18) • MzPT2 (Accession: WP_135330626.1) (SEQ ID NO: 19) B. Cell-Free Biosynthesis Reaction with CLPP and Various Aromatic Substrates
(§2) The cyclolavandulyl diphosphate synthase, CLDS was prepared as described in Example 1 and used in the synthesis of CLPP.
(§3) Stocks of the various aromatic compounds used as substrates for cyclolavandulylation activity screening were obtained from the following commercial sources: • Resveratrol (Fisher Scientific) 200 mM stock in DMSO • Luteolin (Fisher Scientific) 200 mM stock in DMSO • Naringenin (Fisher Scientific) 200 mM stock in DMSO • Tryptamine (Fisher Scientific) 200 mM stock in DMSO • Tryptophan (Fisher Scientific) 40 mM stock in water • Olivetolic acid (Toronto Research Chemicals) 200 mM stock in DMSO • Divarinic acid (Toronto Research Chemicals) 200 mM stock in DMSO • Phorolic acid (prepared in house) 200 mM stock in DMSO • Olivetol (Fisher Scientific) 200 mM stock in DMSO • Screening for cell-free biosynthesis was carried out as follows. 10 mM DMAPP, 5 mM MgCl2, 100 mM Tris-HCl (pH=8), and 4 mg/mL CLDS (SEQ ID NO: 4) were combined in a 6.80 mL reaction, which was incubated at 28° C. for 48 hours. This mixture was aliquoted into a 96-well plate (80 μL per well). The various prenyltransferases (18 μL, ˜1 g/L final concentration) listed above were screened across various substrates (2 μL of stock solution, variable concentration shown above), which were added to the wells and incubated at 28° C. for an additional 48 hours.
(§4) Analysis of the reaction mixture was carried out as follows: 50 μL of the reaction mixture were added to 1 mL MeOH. The resulting solution was vortexed, centrifuged at 17,200 g for 5 minutes, and transferred to an HPLC vial for analysis. HRMS-QTOF analyses of the cell free reactions was performed on an Agilent Technologies 6545 Accurate Mass QTOF LC/MS with a reverse-phase column (Agilent Infinity Lab Poroshell 120 ECC18, 2.7 μm, 3.0×50 mm) using positive ESI with 1% MeCN—H2O (0.1% FA) for 2 min followed by a linear gradient of 1-99% MeCN—H2O (0.1% FA) for 14 min with a flow rate of 0.4 mL/min.
(§5) Mass spectrometric (MS) analysis of chromatograms was carried out using MassHunter Qualitative Analysis 10.0. Targeted metabolomics using the exact m/z of the calculated proton adduct [H^+] in the presence and absence of prenyltransferase indicated the presence of cyclolavandulylated product.

Row | Molecule | presence of cyclolavandulylated product, Aromatic Compound (Substrate) Resveratrol
1 | B1 | No
2 | B2 | Yes
3 | B3 | No
4 | B4 | No
5 | B5 | Yes
6 | B6 | No

Assay: cell-free cyclolavandulylation activity screening of prenyltransferases, substrate olivetolic acid
Type: biochemical
Conditions: cell-free reaction with CLDS and DMAPP (CLPP donor), 28° C., 48 hours, QTOF LC/MS, with vs without prenyltransferase
Text: as §1, §2, §3, §4, §5

Row | Molecule | presence of cyclolavandulylated product, Aromatic Compound (Substrate) Olivetolic Acid
7 | B1 | No
8 | B2 | No
9 | B3 | No
10 | B4 | No
11 | B5 | Yes
12 | B6 | Yes

Assay: cell-free cyclolavandulylation activity screening of prenyltransferases, substrate divarinic acid
Type: biochemical
Conditions: cell-free reaction with CLDS and DMAPP (CLPP donor), 28° C., 48 hours, QTOF LC/MS, with vs without prenyltransferase
Text: as §1
(§6) The cyclolavandulyl diphosphate synthase, CLDS was prepared as described in Example 1 and used in the synthesis of CLPP. […]
as §5

Row | Molecule | presence of cyclolavandulylated product, Aromatic Compound (Substrate) Divarinic Acid
13 | B5 | Yes

Assay: cell-free cyclolavandulylation activity screening of prenyltransferases, substrate naringenin
Type: biochemical
Conditions: cell-free reaction with CLDS and DMAPP (CLPP donor), 28° C., 48 hours, QTOF LC/MS, with vs without prenyltransferase
Text: as §1, §2, §3, §4, §5

Row | Molecule | presence of cyclolavandulylated product, Aromatic Compound (Substrate) Naringenin
14 | B1 | No
15 | B2 | Yes
16 | B3 | No
17 | B4 | Yes
18 | B5 | No
19 | B6 | No

Assay: cell-free cyclolavandulylation activity screening of prenyltransferases, substrate tryptophan
Type: biochemical
Conditions: cell-free reaction with CLDS and DMAPP (CLPP donor), 28° C., 48 hours, QTOF LC/MS, with vs without prenyltransferase
Text: as §1, §2, §3, §4, §5

Row | Molecule | presence of cyclolavandulylated product, Aromatic Compound (Substrate) Tryptophan
20 | B1 | Yes
21 | B2 | Yes
22 | B3 | No
23 | B4 | Yes
24 | B5 | No
25 | B6 | No

Assay: cell-free cyclolavandulylation activity screening of prenyltransferases, substrate luteolin
Type: biochemical
Conditions: cell-free reaction with CLDS and DMAPP (CLPP donor), 28° C., 48 hours, QTOF LC/MS, with vs without prenyltransferase
Text: as §1, §2, §3, §4, §5

Row | Molecule | presence of cyclolavandulylated product, Aromatic Compound (Substrate) Luteolin
26 | B1 | No
27 | B2 | No
28 | B3 | Yes
29 | B4 | No
30 | B5 | No
31 | B6 | No

Assay: cell-free cyclolavandulylation activity screening of prenyltransferases, summary over all tested substrates
Type: biochemical
Conditions: any of the tested substrates; cell-free biosynthesis reaction with CLDS from Streptomyces sp. CL190 and DMAPP
Text: as §1, §2, §3, §4, §5

Row | Molecule | cyclolavandulylation activity with tested aromatic compounds (summary of Table 7)
32 | B1 | produced a cyclolavandulylated aromatic compound
33 | B2 | produced a cyclolavandulylated aromatic compound
34 | B3 | produced a cyclolavandulylated aromatic compound
35 | B4 | produced a cyclolavandulylated aromatic compound
36 | B5 | produced a cyclolavandulylated aromatic compound
37 | B6 | produced a cyclolavandulylated aromatic compound

Assay: cell-free cyclolavandulylation activity screening of prenyltransferases, substrate tryptamine
Type: biochemical
Conditions: cell-free reaction with CLDS and DMAPP (CLPP donor), 28° C., 48 hours, QTOF LC/MS, with vs without prenyltransferase
Text: as §1, §2, §3, §4, §5

Row | Molecule | presence of cyclolavandulylated product, Aromatic Compound (Substrate) Tryptamine
38 | B1 | No
39 | B2 | No
40 | B3 | No
41 | B4 | No
42 | B5 | No
43 | B6 | No

Assay: cell-free cyclolavandulylation activity screening of prenyltransferases, substrate phorolic acid
Type: biochemical
Conditions: cell-free reaction with CLDS and DMAPP (CLPP donor), 28° C., 48 hours, QTOF LC/MS, with vs without prenyltransferase
Text: as §1, §6, §5

Row | Molecule | presence of cyclolavandulylated product, Aromatic Compound (Substrate) Phorolic Acid
44 | B5 | No

Assay: cell-free cyclolavandulylation activity screening of prenyltransferases, substrate olivetol
Type: biochemical
Conditions: cell-free reaction with CLDS and DMAPP (CLPP donor), 28° C., 48 hours, QTOF LC/MS, with vs without prenyltransferase
Text: as §1, §6, §5

Row | Molecule | presence of cyclolavandulylated product, Aromatic Compound (Substrate) Olivetol
45 | B5 | No

Reference: patent publication US20250043319A1, “BIOSYNTHESIS OF CYCLOLAVANDULYL DERIVATIVES OF AROMATIC COMPOUNDS” (Invizyne Technologies, Inc., priority 2022, published 2025)
